# Experimental data reported in article PMC8263732, “M1BP cooperates with CP190 to activate transcription at TAD borders and promote chromatin insulator activity” (Nature Communications, 2021).
# T1: Modifier of mdg4 [Mod(mdg4)] 67.2 kDa isoform [Mod(mdg4)67.2] (Drosophila (endogenous in 0-24 h Oregon …, UniProt Q86B87 1-610))
# T1 construct: Modifier of mdg4, the 67.2 kDa isoform, Drosophila; The gene has many isoforms; the 67.2 kDa isoform is meant; to be checked; source: endogenous, nuclear extract of 0-24 h Drosophila embryos
# T1 sequence (looked up): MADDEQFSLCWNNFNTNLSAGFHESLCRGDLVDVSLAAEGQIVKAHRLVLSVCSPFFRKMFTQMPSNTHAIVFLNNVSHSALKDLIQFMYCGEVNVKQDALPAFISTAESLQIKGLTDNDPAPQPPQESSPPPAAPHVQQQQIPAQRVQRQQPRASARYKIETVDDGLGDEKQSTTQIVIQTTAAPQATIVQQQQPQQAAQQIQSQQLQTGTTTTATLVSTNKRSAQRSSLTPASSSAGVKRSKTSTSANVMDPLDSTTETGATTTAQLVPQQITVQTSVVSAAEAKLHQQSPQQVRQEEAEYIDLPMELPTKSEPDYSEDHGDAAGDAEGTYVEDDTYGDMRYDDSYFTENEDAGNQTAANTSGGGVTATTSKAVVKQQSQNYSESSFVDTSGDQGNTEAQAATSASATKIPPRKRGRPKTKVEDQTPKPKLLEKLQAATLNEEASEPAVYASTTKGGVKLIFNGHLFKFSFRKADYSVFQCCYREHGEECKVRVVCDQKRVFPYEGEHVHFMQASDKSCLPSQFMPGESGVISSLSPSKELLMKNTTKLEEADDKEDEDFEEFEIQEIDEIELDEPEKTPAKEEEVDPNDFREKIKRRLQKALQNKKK
# T2: Motif 1 Binding Protein (M1BP) (Drosophila (endogenous in 0-24 h Oregon …, UniProt Q9VHM3 1-418))
# T2 construct: endogenous protein in embryonic nuclear extract; source: endogenous, nuclear extract of 0-24 h Drosophila embryos
# T2 sequence (looked up): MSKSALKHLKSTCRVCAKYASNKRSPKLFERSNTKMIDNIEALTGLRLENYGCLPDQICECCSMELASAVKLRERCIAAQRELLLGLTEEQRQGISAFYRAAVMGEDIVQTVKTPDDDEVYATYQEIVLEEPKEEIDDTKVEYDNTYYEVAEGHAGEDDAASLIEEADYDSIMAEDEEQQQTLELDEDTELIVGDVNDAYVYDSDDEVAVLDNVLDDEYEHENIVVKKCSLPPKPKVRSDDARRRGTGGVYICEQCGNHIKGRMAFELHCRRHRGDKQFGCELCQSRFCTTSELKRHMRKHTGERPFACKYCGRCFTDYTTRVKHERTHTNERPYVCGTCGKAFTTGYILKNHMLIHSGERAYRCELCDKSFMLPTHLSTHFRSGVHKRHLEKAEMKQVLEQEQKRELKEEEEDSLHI
# T3: Suppressor of Hairy wing [Su(Hw)] (Drosophila (endogenous in 0-24 h Oregon …, UniProt P08970 1-941))
# T3 construct: endogenous protein in embryonic nuclear extract; source: endogenous, nuclear extract of 0-24 h Drosophila embryos
# T3 sequence (looked up): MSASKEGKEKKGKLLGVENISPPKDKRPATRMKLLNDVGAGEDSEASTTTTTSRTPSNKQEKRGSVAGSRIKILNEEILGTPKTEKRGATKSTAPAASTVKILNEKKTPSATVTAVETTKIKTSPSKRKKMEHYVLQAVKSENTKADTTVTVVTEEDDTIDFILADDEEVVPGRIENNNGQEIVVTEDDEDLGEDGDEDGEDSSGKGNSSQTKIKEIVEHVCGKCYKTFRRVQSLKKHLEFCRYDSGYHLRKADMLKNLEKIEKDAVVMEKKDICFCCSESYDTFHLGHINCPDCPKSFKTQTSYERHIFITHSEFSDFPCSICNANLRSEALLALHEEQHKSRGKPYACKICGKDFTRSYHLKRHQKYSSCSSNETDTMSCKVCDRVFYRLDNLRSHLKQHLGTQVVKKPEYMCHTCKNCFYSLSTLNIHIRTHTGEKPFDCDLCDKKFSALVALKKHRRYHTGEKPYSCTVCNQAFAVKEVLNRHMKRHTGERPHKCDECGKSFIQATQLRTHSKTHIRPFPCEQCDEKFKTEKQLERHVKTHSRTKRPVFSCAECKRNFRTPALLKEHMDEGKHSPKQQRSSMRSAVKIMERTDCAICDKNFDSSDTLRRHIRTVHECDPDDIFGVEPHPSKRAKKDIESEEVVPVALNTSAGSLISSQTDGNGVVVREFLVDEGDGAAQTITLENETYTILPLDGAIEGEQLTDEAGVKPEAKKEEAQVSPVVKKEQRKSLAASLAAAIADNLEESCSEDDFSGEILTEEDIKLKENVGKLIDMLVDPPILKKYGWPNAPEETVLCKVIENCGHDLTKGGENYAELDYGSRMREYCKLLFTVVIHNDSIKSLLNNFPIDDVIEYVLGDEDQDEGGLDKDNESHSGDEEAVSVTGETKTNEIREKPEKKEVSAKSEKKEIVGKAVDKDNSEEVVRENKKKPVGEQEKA
# B1: Centrosomal protein 190 (CP190) (natural protein, UniProt Q24478 1-1096, looked up)
# chain: MGEVKSVKVDNWGVFFLQKLQNFFNKTDYCDLTLQFRDNSQLKVHRLVLSACTDYFNVLEQTCEIVDDALIMPNEFQADVVVPIVNFMYTGTLEFELKMYGKLLRTAKEMNMTVLLKLLEAHRRTMENVNRQQRPPSPKGIRRRTVGQPSSGLPQQRVLGPSPQSRNVATPIAQRANTQRGSTGNTMSRTSGGSNRSPYGDSSNVKQEPTSPFEQLRKGYNNNKRPAQTSLLSPPSKKPSLEEVKEFAEQQRMRKQIAAEYGDNDPEYDGGMLYDDVHAGDDDDDDMPPQPSTSKQQSPQGTQTQLEHGSTTIILKQDSPSQTPTIIVKDSSNAKLNHTKIIAEVLRQYPHIVKGHKNIKLKIMPNTPAAPTEKSAPATVKPPANQSSATTSPHKKLHVSFKADKSTPLITAQQKAASSQQKSGTSQTTGNQGTGANPPANTAAAQKRRIDSKTMHALIAQGAENTTGPWLCLRCGVNGRPISIPSYRGFRRHLINTHKETIDPALCEHCGWRSVNNRELHFHMYMEHQTKSLLYTFAECALCNQSYRTKGELEAHINEVHTDDNKQQCIYCNKVFEQELQLYRHMKSYHKEQALEDGIIDETDEEFLGSQDEEEEAEGDEEQEPEQTGKVRILSDISLPATSAITVQQAQQEQLQEEDVEQVQQEVKFVGADGNEVELTDEQRKEILSQLNQQQAGATAGGVVMVLSEPEAEHVKQETDEKSLAGTEEEYDDSQIYSELGAADSVESAKKNIADESKESIDNLEWAENLIAESEEQSNKEPKSDKPRDDISEKLKELTGDWTEDENDDDVDDKPATAELASELANKDPEPTVHEEEDDIDLALQSLHKGPEEATEEKASEESVTSADDAVDAVPNINSQPEKMDVDSEAADEKASKAEVQIKKEAELENDQEEFIKEDSPIPHSDSVAELREAVTASEGEDDVHLEADNIRKELLDELIAEAEKPDQEKDIVQSEENATTEALDRSVTDEDDLVPPTQVSTEQMEIDEPAAEKAAENNEDTRTADEKEAVEDKPNQTQDVTTAEKPTLESAKAGDEATSGEAASVDKVKSLISEWGDDDEDEDENGVSAAAKEEL
# notes: Centrosomal protein 190 (CP190), universal insulator protein of Drosophila; endogenous protein in embryonic nuclear extract; source: endogenous, nuclear extract of 0-24 h Drosophila embryos
# How the values were obtained:
# Test in all cases: co-IP; 500 ug nuclear extract of 0-24 h Drosophila embryos incubated overnight at 4 C with antiserum (anti-Su(Hw), anti-CP190, anti-Mod(mdg4)67.2 or anti-M1BP; normal serum as control) cross-linked to Protein A or G Sepharose; washed twice with HBSMT and once with HBSM; western blotting; efficiency as percent of total input protein
# Conditions in all cases: partners not purified
# [1] = biological target: T1, Modifier of mdg4 [Mod(mdg4)] 67.2 kDa …
# [2] = biological target: T2, Motif 1 Binding Protein (M1BP)
# [3] = biological target: T3, Suppressor of Hairy wing [Su(Hw)]
binder,measurement,setting,value
B1,percent of total protein immunoprecipitated with anti-Mod(mdg4)67.2,[1],11%
same,percent of total protein immunoprecipitated with anti-M1BP,[2],3.8%
same,percent of total protein immunoprecipitated with anti-Su(Hw),[3],5.2%
